What was measured:
GST-hExo70 (human Exo70) = GST-hExo70 (human Exo70) (human, UniProt Q9UPT5 1-735); experiment: pull-down
GST-Exo70p (yeast Exo70) = GST-Exo70p (yeast Exo70) (yeast, UniProt P19658 1-623); experiment: pull-down
Chain of GST-Exo70p (yeast Exo70) (P19658 whole entry): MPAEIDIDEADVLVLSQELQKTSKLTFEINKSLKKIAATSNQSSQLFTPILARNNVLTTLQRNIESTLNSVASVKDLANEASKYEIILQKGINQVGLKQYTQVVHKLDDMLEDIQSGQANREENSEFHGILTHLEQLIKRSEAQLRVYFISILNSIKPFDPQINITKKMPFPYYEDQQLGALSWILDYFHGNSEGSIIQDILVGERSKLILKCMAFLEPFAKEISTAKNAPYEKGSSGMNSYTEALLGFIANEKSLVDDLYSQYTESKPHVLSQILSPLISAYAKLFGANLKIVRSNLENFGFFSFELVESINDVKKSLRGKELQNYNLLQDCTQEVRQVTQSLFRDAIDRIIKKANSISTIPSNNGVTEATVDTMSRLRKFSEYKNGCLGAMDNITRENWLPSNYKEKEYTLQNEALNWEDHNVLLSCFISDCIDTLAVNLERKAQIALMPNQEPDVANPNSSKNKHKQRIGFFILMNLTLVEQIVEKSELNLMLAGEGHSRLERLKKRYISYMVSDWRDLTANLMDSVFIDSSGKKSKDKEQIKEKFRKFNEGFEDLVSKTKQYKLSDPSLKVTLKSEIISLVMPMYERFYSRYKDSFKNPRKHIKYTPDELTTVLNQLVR

Chain of GST-hExo70 (human Exo70) (Q9UPT5 whole entry): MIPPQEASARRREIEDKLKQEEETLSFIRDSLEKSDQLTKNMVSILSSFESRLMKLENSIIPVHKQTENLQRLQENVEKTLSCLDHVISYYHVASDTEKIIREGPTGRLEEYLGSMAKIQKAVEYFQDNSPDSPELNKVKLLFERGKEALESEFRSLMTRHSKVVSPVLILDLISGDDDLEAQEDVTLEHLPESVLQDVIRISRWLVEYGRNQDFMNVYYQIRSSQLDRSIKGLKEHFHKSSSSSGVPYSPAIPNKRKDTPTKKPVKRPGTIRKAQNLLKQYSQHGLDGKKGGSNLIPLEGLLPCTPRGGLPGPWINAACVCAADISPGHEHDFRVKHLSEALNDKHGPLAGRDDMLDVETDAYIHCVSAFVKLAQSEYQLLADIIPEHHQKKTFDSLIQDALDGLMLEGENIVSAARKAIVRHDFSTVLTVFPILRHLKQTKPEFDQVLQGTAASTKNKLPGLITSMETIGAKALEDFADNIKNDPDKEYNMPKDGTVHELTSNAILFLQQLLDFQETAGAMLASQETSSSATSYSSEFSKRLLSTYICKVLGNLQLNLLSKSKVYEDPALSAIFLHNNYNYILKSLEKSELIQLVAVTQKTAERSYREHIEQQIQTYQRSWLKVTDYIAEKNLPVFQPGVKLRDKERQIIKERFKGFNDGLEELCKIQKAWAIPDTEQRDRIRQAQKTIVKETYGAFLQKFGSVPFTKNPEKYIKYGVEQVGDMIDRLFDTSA

Row | fold binding against yeast Exo70p (GST-hExo70 (human Exo70)) | fold binding against human Exo70 (GST-Exo70p (yeast Exo70)) | Binder
1 | 4 fold | – | Recombinant His-GIV-CT (C terminus of GIV/Girdin), wild type (domain or fragment) SETLESRHHKIKTGSPGSEVVTLQQFLEESNKLTSVQIKSSSQENLLDEVMKSLSVSSDFLGKDKPVSCGLARSVSGKTPGDFYDRRTTKPEFLRPGPRKTEDTYFISSAGKPTPGTQGKIKLVKESSLSRQSKDSNPYATLPRASSVISTAEGTTRRTSIHDFLTKDSRLPISVDSPPAAADSNTTAASNVDKVQESRNSKSRSREQQSS
2 | – | 2 fold | Recombinant His-Bem1p (natural protein, yeast, UniProt P29366 1-551, looked up) MLKNFKLSKRDSNGSKGRITSADISTPSHDNGSVIKHIKTVPVRYLSSSSTPVKSQRDSSPKNRHNSKDITSPEKVIKAKYSYQAQTSKELSFMEGEFFYVSGDEKDWYKASNPSTGKEGVVPKTYFEVFDRTKPSSVNGSNSSSRKVTNDSLNMGSLYAIVLYDFKAEKADELTTYVGENLFICAHHNCEWFIAKPIGRLGGPGLVPVGFVSIIDIATGYATGNDVIEDIKSVNLPTVQEWKSNIARYKASNISLGSVEQQQQQSITKPQNKSAKLVDGELLVKASVESFGLEDEKYWFLVCCELSNGKTRQLKRYYQDFYDLQVQLLDAFPAEAGKLRDAGGQWSKRIMPYIPGPVPYVTNSITKKRKEDLNIYVADLVNLPDYISRSEMVHSLFVVLNNGFDREFERDENQNNIKTLQENDTATFATASQTSNFASTNQDNTLTGEDLKLNKKLSDLSLSGSKQAPAQSTSGLKTTKIKFYYKDDIFALMLKGDTTYKELRSKIAPRIDTDNFKLQTKLFDGSGEEIKTDSQVSNIIQAKLKISVHDI

From paper PMC7322189 (iScience, 2020)
